Columns and labels:
Experiment in all cases: native MS
[1] = molecular target: long neurotoxin 2 from O. hannah (Ophiophagus hannah, UniProt A8N285)
[2] = molecular target: long neurotoxin 2 from N. melanoleuca (Naja melanoleuca, UniProt P01388)
[3] = molecular target: long neurotoxin from N. melanoleuca (Naja melanoleuca, UniProt P0DQQ2)
[4] = molecular target: long neurotoxin 4 from N. naja (Naja naja, UniProt P25672)

Measured: binding result

B1: 2554_01_D11 IgG (antibody, V domains shown)
VH: QVQLVQSGAEVKKPGSSVKVSCKASGGTFSSYAISWVRQAPGQGLEWMGGIIPIFGTANYAQKFQGRVTITADESTSTAYMELRSLRSDDTAVYYCARDNLGYCSGGSCYSDYYYYYMDVWGQGTLVTVSS
VL: NFMLTQPRSVSESPGKTVTISCTRSSGSIGSDYVHWYQQRPGSSPTTVIYEDNQRPSGVPDRFSGSIDSSSNSASLTISGLKTEDEADYYCQSYDRSNHEVVFGGGTKLTVL
binds: all assays above

Source: paper doi:10.1101/2022.06.17.496531 (bioRxiv, 2022)
